# Laboratory results reported in US11278600B2, “Human alpha-galactosidase variants” (Codexis, Inc., priority 2014, dated 2022).
# Positions count from the first letter of the chain named.
# B1: 101 (protein)
# chain: LDNGLARTPTMGWLHWERFMCNLDCQEEPDSCISEKLFMEMAELMVSEGWKDAGYEYLCIDDCWMAPQRDSEGRLQADPQRFPHGIRQLANYVHSKGLKLGIYADVGNKTCAGFPGSFGYYDIDAQTFADWGVDLLKFDGCYCDSLENLADGYKHMSLALNRTGRSIVYSCEWPLYMWPFQKPNYTEIRQYCNHWRNFADIDDSWKSIKSILDWTSFNQERIVDVAGPGGWNDPDMLVIGNFGLSWNQQVTQMALWAIMAAPLFMSNDLRHISPQAKALLQDKDVIAINQDPLGKQGYQLRQGDNFEVWERPLSGDAWAVAMINRQEIGGPRSYTIAVASLGKGVACNPACFITQLLPVKRKLGFYEWTSRLRSHINPTGTVLLQLENTMQMSKDLLL
# modifications: Synthetic Polypeptide sequence of Variant No. 101 of mature Human GLA
# B2: 102 (protein)
# chain: B1 chain with D316E
# modifications: Synthetic Polypeptide sequence of Variant No. 102 of mature Human GLA
# B3: 33 (protein)
# chain: B1 chain with A199H, D316L, E367S
# modifications: Synthetic Polypeptide sequence of Variant No. 33 of mature Human GLA
# B4: 103 (protein)
# chain: B1 chain with D316L, L384F
# modifications: Synthetic Polypeptide sequence of Variant No. 103 of mature Human GLA
# B5: 104 (protein)
# chain: B1 chain with D316L, L386V
# modifications: Synthetic Polypeptide sequence of Variant No. 104 of mature Human GLA
# B6: 105 (protein)
# chain: B1 chain with D316L, K394A
# modifications: Synthetic Polypeptide sequence of Variant No. 105 of mature Human GLA
# B7: 106 (protein)
# chain: B1 chain with D316L, K394R
# modifications: Synthetic Polypeptide sequence of Variant No. 106 of mature Human GLA
# B8: 107 (protein)
# chain: B1 chain with D316L, K394S
# modifications: Synthetic Polypeptide sequence of Variant No. 107 of mature Human GLA
# B9: 108 (protein)
# chain: B1 chain with D316L, K394T
# modifications: Synthetic Polypeptide sequence of Variant No. 108 of mature Human GLA
# B10: 110 (protein)
# chain: B1 chain with D316L, L397D
# modifications: Synthetic Polypeptide sequence of Variant No. 110 of mature Human GLA
# B11: 111 (protein)
# chain: B1 chain with D316L, L397H
# modifications: Synthetic Polypeptide sequence of Variant No. 111 of mature Human GLA
# B12: 112 (protein)
# chain: B1 chain with D316L, L397I
# modifications: Synthetic Polypeptide sequence of Variant No. 112 of mature Human GLA
# Experiment: HTP-analysis of yeast culture supernatants, no challenge (MUGal hydrolysis)
# Format: biochemical
# Settings: activity of the variant/activity of WT GLA (SEQ ID NO: 5), yeast supernatant
# Method in brief: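 GLA variants were expressed in INVSc1 yeast grown in SD-Ura broth with glucose at 30° C., and culture supernatants were collected after 66-84 h. Supernatant was mixed with McIlvaine buffer pH 4.8 and MUGal (2 mM stock) in 50 mM citrate, 200 mM KCl, pH 4.6, incubated at 37° C. for 30-180 minutes, then quenched with sodium carbonate.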
row,Molecule,Relative Activity of GLA Variants After No Challenge (NC)
1,B1,+++ (+++ = >2.5 relative activity over WT GLA (SEQ ID NO: 5))
2,B2,+++ (+++ = >2.5 relative activity over WT GLA (SEQ ID NO: 5))
3,B3,+ (+ = 0.5 to 1.5 relative activity over WT GLA (SEQ ID NO: 5))
4,B4,++ (++ = >1.5 to 2.5 relative activity over WT GLA (SEQ ID NO: 5))
5,B5,++ (++ = >1.5 to 2.5 relative activity over WT GLA (SEQ ID NO: 5))
6,B6,+++ (+++ = >2.5 relative activity over WT GLA (SEQ ID NO: 5))
7,B7,++ (++ = >1.5 to 2.5 relative activity over WT GLA (SEQ ID NO: 5))
8,B8,+++ (+++ = >2.5 relative activity over WT GLA (SEQ ID NO: 5))
9,B9,+++ (+++ = >2.5 relative activity over WT GLA (SEQ ID NO: 5))
10,B10,+++ (+++ = >2.5 relative activity over WT GLA (SEQ ID NO: 5))
11,B11,++ (++ = >1.5 to 2.5 relative activity over WT GLA (SEQ ID NO: 5))
12,B12,+ (+ = 0.5 to 1.5 relative activity over WT GLA (SEQ ID NO: 5))

# Experiment: HTP-analysis of supernatants pretreated with acid (MUGal hydrolysis)
# Format: biochemical
# Settings: challenge at pH 4.2; activity of the variant/activity of WT GLA (SEQ ID NO: 5); yeast supernatant
# Method in brief: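 MUGal hydrolysis was tracked by fluorescence (Ex 355 nm, Em 448 nm) after a 30-180 min reaction at 37° C. in pH 4.8 McIlvaine/citrate buffer, stopped with 1 M sodium carbonate. Beforehand, yeast (INVSc1) culture supernatants carrying GLA variants were held 1-3 h at 37° C. in acidic McIlvaine buffer, pH 3.3-4.3.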
row,Molecule,Relative Activity of GLA Variants After Challenge at pH 4.2
1,B1,+++ (+++ = >2.5 relative activity over WT GLA (SEQ ID NO: 5))
2,B2,+++ (+++ = >2.5 relative activity over WT GLA (SEQ ID NO: 5))
3,B3,+ (+ = 0.5 to 1.5 relative activity over WT GLA (SEQ ID NO: 5))
4,B4,++ (++ = >1.5 to 2.5 relative activity over WT GLA (SEQ ID NO: 5))
5,B5,++ (++ = >1.5 to 2.5 relative activity over WT GLA (SEQ ID NO: 5))
6,B6,++ (++ = >1.5 to 2.5 relative activity over WT GLA (SEQ ID NO: 5))
7,B7,++ (++ = >1.5 to 2.5 relative activity over WT GLA (SEQ ID NO: 5))
8,B8,+++ (+++ = >2.5 relative activity over WT GLA (SEQ ID NO: 5))
9,B9,+++ (+++ = >2.5 relative activity over WT GLA (SEQ ID NO: 5))
10,B10,++ (++ = >1.5 to 2.5 relative activity over WT GLA (SEQ ID NO: 5))
11,B11,++ (++ = >1.5 to 2.5 relative activity over WT GLA (SEQ ID NO: 5))
12,B12,++ (++ = >1.5 to 2.5 relative activity over WT GLA (SEQ ID NO: 5))

# Experiment: HTP-analysis of supernatants pretreated with base (MUGal hydrolysis)
# Format: biochemical
# Settings: challenge at pH 7.1; activity of the variant/activity of WT GLA (SEQ ID NO: 5); yeast supernatant
# Method in brief: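 GLA variants were secreted by transformed INVSc1 yeast grown 66-84 h at 30° C. Supernatants were exposed to neutral-to-basic buffers (pH 7.0-9.7) at 37° C for 1-18 h, then assayed with MUGal in acidic citrate/McIlvaine buffer, with fluorescence read after quenching.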
row,Molecule,Relative Activity of GLA Variants After Challenge at pH 7.1
1,B1,+++ (+++ = >2.5 relative activity over WT GLA (SEQ ID NO: 5))
2,B2,+++ (+++ = >2.5 relative activity over WT GLA (SEQ ID NO: 5))
3,B3,+ (+ = 0.5 to 1.5 relative activity over WT GLA (SEQ ID NO: 5))
4,B4,++ (++ = >1.5 to 2.5 relative activity over WT GLA (SEQ ID NO: 5))
5,B5,++ (++ = >1.5 to 2.5 relative activity over WT GLA (SEQ ID NO: 5))
6,B6,++ (++ = >1.5 to 2.5 relative activity over WT GLA (SEQ ID NO: 5))
7,B7,+++ (+++ = >2.5 relative activity over WT GLA (SEQ ID NO: 5))
8,B8,+++ (+++ = >2.5 relative activity over WT GLA (SEQ ID NO: 5))
9,B9,+++ (+++ = >2.5 relative activity over WT GLA (SEQ ID NO: 5))
10,B10,+++ (+++ = >2.5 relative activity over WT GLA (SEQ ID NO: 5))
11,B11,++ (++ = >1.5 to 2.5 relative activity over WT GLA (SEQ ID NO: 5))
12,B12,+ (+ = 0.5 to 1.5 relative activity over WT GLA (SEQ ID NO: 5))
